# Assay: soluble on expression in E. coli; label from the status in PepcDB or PDB records
row,Sequence,soluble on expression in E. coli
1,GPGSMDTRDRPLPRTPPLQTPRGSCHPPLLTVEEDVRRAGQVRQVRPTKELNCRHQTSLQLYREHRRCEAEGFKERRVILRVWVLHGQHAPGGHTRPHPTGAQDRDAQAPQLRRAVESRLSPTHYEAEGDGRLNRRHHTTTACSHQRPHILRHIRRGNKDVAP,not soluble
2,GPGSMEPKRSGNMACVERERERDYWRHLERLNNQRCRIDNTIPVSCAYVRPIGSMRRNPARAEQVNRDNQKLVEKMVHIMNTRGGVDTSEPWRDYNKAINSQRRRNQEQANIARENAKLLDRLERTQPTYRSEKFEADRRRNEEFAARASRYPYQPMDRTRY,soluble
3,GPGSMEQPKGINILITGTPGTGKTSMAEMIAAELDGFQHLEVGKLVKENHFYTEYDTELDTHIIEEKDEDRLLDFMEPIMVSRGNHVVDYHSSELFPERWFHMVVVLHTSTEVLFERLTKRQYSEAKRAENMEAEIQCICEEEARDAYEDDIVLVRENDTLEQMAATVEEIRERVEVLKVERGL,soluble
4,GPGSMETTTHVVNPGEEGAYSSITEAINAAVDGDTVLLKPGLYEELPKVFKDITVTAERDASLTESETIVTNGIVIGSNATLKGLQVRGRVDVRKGHAVIEECDIHHGCDGIRVGEAAKLTVRRSRIHHCESGGDGIYFSTGSMGEVEDCDIYECRVNGVHANNARVVIARNRVRDVLFGFYFRGQSSGSVERNSVEHVSKFGIYVTEGSDPVVQGNMVRECGMHCAFVSQGGKGIWVDNSFDGSMHVHSGCDAKLGSNHVVGRLDVDPPT,not soluble
5,GPGSMFNVVLVEPEIPPNTGNVIRLCANTGARLHLIEPLGFPLDDAKMRRAGLDYHEYAQMRVHRDWDAFVAAEAPDPARMFAFTTRGSGRFHDRAFEPGDWFVFGAETRGLAPALVDRFAPEQRVRLPMRPGNRSLNLSNTVAVVVFEAWRQAGFEGGA,soluble
6,GPGSMGCGDSKVRQGGPSRPPPPRGGPNSASTKVEGRANGPNEETSRVESKGSAPPEPEVNSTPVPTKPLGNGVDNSGAEKTNAPPTGSAPPAQNCSQQIELDDEGNALVLPKGEWVRTEGTPFYYSDAENLYFHPPSCQFYDPTNEMWYDPEQDEWYRDDDPAE,not soluble
7,GPGSMGIIKHVAVILDVSEASLEQHVLERVRQLDEDTVVRRLSEEKAGKLPDFIKLSEDIIEKNDLRKSGEGSVESIQRFVCFVTDNKTRQNGMVAYAMHCLQIPVLSLTKGQKAKGNDDAEHWVSTILYKDLDGSHTDPLAAVNEFFTFPDKVGELLAVEGRDSQLTLQYCRELRSYLQRAWSAEVKLVGPNGCDMSEEGLDGTKCGETDNVEEQVEVESGIHAPLVKELLGNSQLESTHQNDHLLHGAMYALNRHENLPIIRYRLQRGVNIILCRPMSSSLEKLFNKFSRMRGGAEDVRRSFIDAVKSLLQFEGRWLDMPRRRVVLIREGVAHSWSAWLGNEVIHPLVDWIPVDVKAGNIADHCASLEASVKKAVRRLSR,soluble
8,GPGSMKKNLLADRTARVFEEARESATRLAAVSDTVSRAAVPHGIRHLFYTADTQREQRQCLAKVFAATCPSLHPLRSGEGEAGDGESSDPTSAAAAAHQDYILLILPDCAKVEDFISHVLLPGQADALRILGSQDDARCTDYLVERLDHTVQVQQQQRRRAETRKFIQRTVRKAEALDGDVGYPSSAPQPSPLFRRLEREVNATAAPIHAAASESQAPAPTSLATSPAVCAADSLTASSSPLRPPRRCFITCNCNNVRGLDLPHLTHVVILAQPTTALEYAHWCGRVGRFGRPGVSVTLMARSATRHMHQFCDSLGIAFRVEKRHAEVDVNAERWLSGADAE,soluble
9,GPGSMKLERSSCFEVQGCISCLTQASNEDACLASTMMNGAHIFHMGDLQHAQCGARQAVTHVETFPHGNFGEGAVISSSFVSYDSCFATGSSSGDIVLVSRHSKNVVQHYSFQNKAAVLSLKEVPNEPSLLLACSPTDAQIIDLETSTARINLHIPKPCVVGGTALTQNTLVVAAYDGKAMLYDVRRGHEPVVILAVPDQIISITSSPDTGAVATGTVSGRVFVLRCLEGNVREEAFSTGKERAPIRSVAMRNGYIAAGDTSAKLTCLDLKEDPKPTRYWDLHSLLTNESGPPSSGAEKLSSVTVPDTESWSLPAVMLQQSDLWAALSSTKYGVSHILAIPI,not soluble
10,GPGSMLNTAFSTADGRRLPRDLTDQQKRDIEEAFRVLDVKGVSTITPNDLKVALRALGYEPDKDAVRKLVAEMDRGGVSSNLVLSEFEDVMRQRFFAEDKDDEVDLAFPLFTEGKSEFISLDDLKRVAAEVGEDIPEDVLQEIIRECDVLDRDGRISREEFNKMLKSDK,soluble
11,GPGSMLRAFASPILAKVPYATLFEYNHVLQKVFEAQPSKVALRCELPGMPEVQFTYGQLQRDVVALADAVVRRKEAVAQARGETSLGWLQPSKPAHVRSVFAQGERTPSCDYMKDTGFYTTSLLCGPGYTYAVSLLASWSLNQLVTPMPISQRYKDELMYVLEHSGSRSIVGNTKLLKEKLPAEYEELYVRAEADVDKIPRSASREPKQRNDSDVTSNTFFVDTVYDATLLVRDITAARDIQGTATLETEWLPPAESVCAPMRSAEDLVKRLDEEKATAKARELDRQAEILQQEHVRRNRAPMQATGGADPAGSDADGESLFCFDSAHLDELNRVYQRWYTMPSARPTKYDDCLMLYTSGTTAKPKGVVHTHASVANMVKVLQNAWQWRDTDSILHVLPWHHVHGLVNILLCAIASNARCVVTTFDDAARVAHRLEQGDITLFMAVPTVYVKLSDAVQRKFSPIEKTGFRRACMESVRLMVCGSAPLPVPTLNQFCELSGHTLLERYGMTEIGMALSQPLHPISDRHPGTVGSPLQTVKTYVHQPETAEAMEQASAKEAEYDEVGGLGIASESLFDRYWNNATATKKEVRTNAAGMRFFDTGDTVGVRLPAGKPAVYTILGRSSVDIIKSRGYKLSALEIEATLLARNDLFYEIAVVGAADAVQGESVVAIVAMQPEAARARGIAFGEGFAWHESAAVTEELKKAALQLLAPYKCPSRYIVVPEIPRNPTGKVNKKDLKKVLGLA,not soluble
12,GPGSMPSGVTHSLSLSSLPVVSLLPRWHKAEVVSHRQLTPTATSAQERAKRGKTSVLAAANTAAMTATESKGFAELYHQLLQDGVQLQKELEAYYLRQEGYIRKRVAVLDEMQENIADERRCLELQHQECRAQISTTRKQAASFLSDERKVSQAVRHAQPFLAAQEAEIDKRLDELQREKEREDTALLNVMARQEALGKQEALLACRERQRFLEEQDLQKALIEMRSLNREMEERRKSLLRKHGTVADWDRKLESRERELLVCQDQLRENLKALEQEENALGIHPAQRTAVAPAVSQRTVMDDHDMSIEHDSACEEIDYED,not soluble
13,GPGSMPSITTAKREYEERLVDCLTKYSCVLFVGMDNVRSQQVHDVRRALRGKAEFMMGKKTLQAKIVEKRAQAKDASAEAKHFNDQCEEYNLLSGNTGLIFTNNAVQEITSVLDAHRVKAPARVGAISPCDVIVPAGSTGMEPTQTSFFQALNIATKIAKGMVEIVTEKKVLSVGDKVDNSTATLLQKLNISPFYYQVNVLSVWDRGVLFTREDLMMTEDMVEKMLMDGLS,not soluble
14,GPGSMQSASSRVPRKPAAASNLGKPSSSGRFTKPNRPQPTSSFSKTAQPDMTGRYGTSTALVASTAASHFTAGARGQSTPFVGLADRTGQEGSVFGLRAPQNDATGAAAHTKTRQAARTKVVDDASTPVVVVGPERDSVPFRLCCEALAEGCVQTYMHLFELAHRDPVCVDTLSRKFFNVPDDRLAWVQQQLSAVEVLRRQSEFEQVFTHCEQLANYFEKEGDYAEAAWYHEMVLHYMMESLDRTLEQRARHVYATFQERQGHLEEAAALYDAMYRLAVALRDEATLQDASCCLVRVHQALGETLKFSDPAAAARHYATAAEAAVRSKNVVDEGSAYSALGDVSEARGDLPLALKYQRSCRAVAQQNDLKPQECRATLRVADLEERLGLKLEASTTLHEALQLAKELGAPRQLCIATMQLGEAYRSRNQEGEALQCFDESFAAAVEAGDQELIDTVRIAMGFARGDYYLTHAYGGKGYLHLVYTDIRAQLAWMSGGTL,not soluble
15,GPGSMSEELILQWAKRVSDAEEELHRMEEDINAVKQQRKLLKADIRKYEDVVASEKCDLLTSLERVEAQAKDLGAQCEATLTEKDRVEAEYMATLDAYENLHFLVREIKDAEEHLQSRDDLEACLQRESVTWAEEEHTLRRKLHELQQQQAQARRAQEAEVRELEAQLSNVEQRQRDERAGRCVEVAQAARRVVHSSRQPTPASPKPVTSAEEDAFVSANAGGAMPIRSAPLKSCLKTPVNGSTSGNAAPTAPRHTTAASAPVSRCASQSLVSDAAASGVQRQGVDGGDQPSLRLLQEMRAYSYGAPCKAGARKREFLGDATNNQ,soluble
16,GPGSMSQLWVKRAKAEMTRHSRVLETINRVFPMPFEERRSRVGMTSYATYRWLRYFPVILVPVVVMGTLLETRDNPQEHVFTSLHLWLADHGVFRHDTVKALNPAFEDERRSIEWKANDRKWRFTGTDMPSEREIREFAAINIDHQSRRQL,soluble
17,GPGSMSSSAPLSTQQPAPLPLQRQQQQQSTQSMLDAIRQQGWGSASSGGGDAMPSDASSRGMEGHSGAKLACPQMHEGHSAISSRPFNSEGADKPFAAVAATREASEAAKNSYDSMQPSADSQQLRGAEGECALPGHANAAAAAATLRNTNGVCEAIVTAARYGRSMEPSASVPAVTATAALVNVVAEEKERRRLSGPFGSYSTTDEVFHQKCNDVQRGSAIESADSRTDASGGALVVSPAYAAVPARVSEAPSPVDAEMQQLLADARRAYTAAEERLLSDGLALREDWMGTRDLFFAAGSLFAAVGEAADAARCLLHATFINRAFQNDSEAMVTLAMSVEQLKQSHPRIAVDSLLRLAPCYAQQDLRYQAARCHRDAAEILENILEAKEEAVVQYRAALDMYAETKVAAAETARRWERQQQQQRTAAIWGDLTGTPPLPPSAGASATNGDLTSPTAPGGVEATSLGSEQPFVSPKSTAPVPSSGGDSLTSSVNGQKPHSLEFPAHGPPQYRVSTTVQRSLADSCRWRLMILLTLLGRYDEAREAALDCAANVPRTLPKTKYLLYATLCVLARGASVKTDSTANSVSDPAAAAEAAQAPETPTTPFTAAAADTVYFDSLYDTEKFFLGLQDEDRTFQRGKENALVRALLAANRACSLTAFDEAVRAYKEYSTTEPCAAFELLAGECRRSLFEHMERFA,not soluble
18,GPGSMSTALFVQATFFNTDNKSTDNKLMTTAAVSHNQSSQDNIMVVNLQKELQKRLEEDAGVKTLYITMGGEPRFNRALFENKSMALFVGDSMSIHHFTDDYGRITRRLLILYPMTFSRREEIPKQQILKKVEKAANQPEDNCGIEVVDLVELQKKHVYLEGQAAACYSYNGEFVYMALSGRSSEQVLSIICAPENLNIPNEKRFVFTAVLPHRSKENGRVIGEDVIPYTSLVGWCGKGICAWGLEFLRFPSEKDQEAFYEHLENNYSKVINLDESELRAFCGNAREVAIAHGNGERRVLCISHQALNALRPFKRQMLEDWYGLGNILPFYADVLERRAGRSVGSLVSVPVIHGEVLPLPGELGVIEAAKVDIKDGGC,soluble
19,GPGSMSTTAHATSMGPLPYPNALQSRHTTTEQRQIAAAAVRAYQGTLEQEKVLLQENDALLSEEEAGRLQRRVDNQAAADATAAQFRDRACKVVASVPGEQHQSEGGVIDIFHAACDGDVAALDACLRSASDINALGQPDPARYNGFQFKQRWLFRAPPLVFAAAFGREEAVRLLLEHGADPHVASTTGLRAQDYAAQRGYSAIVLMLTSGAPQ,soluble
